In data set [1] the target is UBC13/Uev1 heterodimer, P61088.
Data set [2] has as its target UbcH5c, P61077.

UBC13/Uev1 heterodimer, P61088, sequence (P61088 whole entry, chain 1 of 2): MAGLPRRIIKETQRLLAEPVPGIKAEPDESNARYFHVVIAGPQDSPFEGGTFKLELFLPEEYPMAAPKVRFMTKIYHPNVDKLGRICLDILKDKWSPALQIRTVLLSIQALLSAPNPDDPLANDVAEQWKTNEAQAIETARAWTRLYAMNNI
UBC13/Uev1 heterodimer, P61088, sequence (chain, as listed by the source, chain 2 of 2): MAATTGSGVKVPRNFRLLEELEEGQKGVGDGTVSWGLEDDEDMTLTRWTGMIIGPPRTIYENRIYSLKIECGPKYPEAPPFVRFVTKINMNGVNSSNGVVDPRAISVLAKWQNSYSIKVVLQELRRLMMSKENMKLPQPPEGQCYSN
UbcH5c, P61077, sequence (P61077 whole entry): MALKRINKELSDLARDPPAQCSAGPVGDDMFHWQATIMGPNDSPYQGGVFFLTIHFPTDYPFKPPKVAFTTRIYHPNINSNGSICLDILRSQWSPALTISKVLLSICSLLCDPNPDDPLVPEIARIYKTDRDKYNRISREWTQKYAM

B1: glutathione-S-transferase protein (GST)-PEM-3-like fusion protein (protein)
chain: MMAAMLSHAYGPGGCGAAAAALNGEQAALLRRKSVNTTECVPVPSSEHVAEIVGRQGCKIKALRAKTNTYIKTPVRGEEPIFVVTGRKEDVAMAKREILSAAEHFSMIRASRNKNGPALGGLSCSPNLPGQTTVQVRVPYRVVGLVVGPKGATIKRIQQQTHTYIVTPSRDKEPVFEVTGMPENVDRAREEIEMHIAMRTGNYIELNEENDFHYNGTDVSFEGGTLGSAWLSSNPVPPSRARMISNYRNDSSSSLGSGSTDSYFGSNRLADFSPTSPFSTGNFWFGDTLPSVGSEDLAVDSPAFDSLPTSAQTIWTPFEPVNPLSGFGSDPSGNMKTQRRGSQPSTPRLSPTFPESIEHPLARRVRSDPPSTGNHVGLPIYIPAFSNGTNSYSSSNGGSTSSSPPESRRKHDCVICFENEVIAALVPCGHNLFCMECANKICEKRTPSCPVCQTAVTQAIQIHS
Regarding B1, in data set [1], the “free polyubiquitin chain formation, immunoblot” value was “free polyubiquitin chains were only generated in the presence of UBC13/Uev1 heterodimer and a complete ubiquitin conjugation system”; the “in vitro self-ubiquitination, anti-ubiquitin immunoblot” value was “high molecular weight PEM-3-like-ubiquitin adducts were detected by anti-ubiquitin immunoblot analysis”; the “ubiquitin ligase activity by TR-FRET” value was “PEM-3-like acts as an E3 ligase with both UbcH5 and UBC13/Uev1”. Moreover, the “ubiquitin ligase activity by TR-FRET” value in data set [2] was “PEM-3-like acts as an E3 ligase with both UbcH5 and UBC13/Uev1”.

For the origin of these results see US20070141716.
